Measured values as given in patent US20240175877A1.

Biological target: Ara h 2 (peanut) (UniProt Q6PSU2)
Assay: SPR, Biacore 3000

Ara h 2 (peanut), sequence (Q6PSU2 23-172): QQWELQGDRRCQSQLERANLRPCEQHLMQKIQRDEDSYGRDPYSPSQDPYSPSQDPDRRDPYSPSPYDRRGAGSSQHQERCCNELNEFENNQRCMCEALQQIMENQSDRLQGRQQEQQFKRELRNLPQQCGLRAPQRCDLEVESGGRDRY

B1: 13BU2T1 (antibody, IgG1, V domains shown)
VH: VESGGGVVQPGASLRLSCVASGFTFRDYSMHWVRQAPGKGLEWMSFIRFDGTTKDYRESVKGRFIISRDDSKNTLYLQMTSLRPEDTARYYCVKDNGWRAFDHWGQGALVIVSS
VL: EIVMTQSPLSLPVTPGEAASISCRSSQSLLHRNGYIYLDWYLQRPGQSPQLLISFVSKRASGAPDRFSGSGSGTDFTLTISRVEAEDFGVYFCMQSLENPWTFGP
Kd: 4.85 nM
